The labels stand for the following.
B1: SPATS1 (parent)
chain: YPEQSKGFHKAGSMLPPVNFSIVP
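Further: lentivirally expressed fusions sorted by FACS into six bins by GFP to DsRed ratio, PSI derived from sequencing read proportions per bin multiplied by bin number.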

Variants of B1 are the subject of the series. As to the kind of experiment: protein stability index of a GFP-peptide fusion (GPS, HEK-293T) (PSI 1-6); higher = more stable. The settings on record: c terminus: a fixed tail appended.
As for YHEQSKGFHKAGSMLPPVNFSIVP, the protein stability index stood at 2.04.

Turning to YKEQSKGFHKAGSMLPPVNFSIVP, the protein stability index worked out at 2.87.

In the case of YYEQSKGFHKAGSMLPPVNFSIVP, the protein stability index came to 1.91.

On to YLEQSKGFHKAGSMLPPVNFSIVP, for which the protein stability index is 2.29.

As for YTEQSKGFHKAGSMLPPVNFSIVP, the protein stability index came out at 1.77.

In the case of YDEQSKGFHKAGSMLPPVNFSIVP, the protein stability index was 3.19.

YAEQSKGFHKAGSMLPPVNFSIVP: the protein stability index came out at 1.85.

For YPEQSKGFHKAGSMLPPVPFSIVP, the protein stability index is 1.88.

Regarding YPEQSKGFHKAGSMLPPVIFSIVP, the protein stability index turned out to be 2.41.

For YPEQSKGFHKAGSMLPPVMFSIVP, the protein stability index was 1.75.

YPEQSKGFHKAGSKLPPVNFSIVP: the protein stability index stood at 2.47.

As for YPEQSKGFHKAGSYLPPVNFSIVP, the protein stability index stood at 2.

For the variant YPEQSKGFHKAGSNLPPVNFSIVP, the protein stability index came out at 2.37.

Take YPEQSKGFHKAGSWLPPVNFSIVP: the protein stability index turned out to be 1.91.

With YPEQSKGFHKAGSSLPPVNFSIVP, the protein stability index amounted to 2.17.

Turning to YPEQSKGFHKAGSCLPPVNFSIVP, the protein stability index came to 2.25.

In the case of YPEQSKGFHKAGSVLPPVNFSIVP, the protein stability index was 2.03.

On to YPEQSKMFHKAGSMLPPVNFSIVP, for which the protein stability index is 2.2.

Consider YPEQSKIFHKAGSMLPPVNFSIVP, for which the protein stability index was found to be 2.34.

Consider YPEQSKAFHKAGSMLPPVNFSIVP, for which the protein stability index was found to be 2.45.

On to YPEQSKPFHKAGSMLPPVNFSIVP, for which the protein stability index came to 1.71.

Turning to YPEQVKGFHKAGSMLPPVNFSIVP, the protein stability index is 2.45.

In the case of YPEQQKGFHKAGSMLPPVNFSIVP, the protein stability index was 2.55.

Turning to YPEQRKGFHKAGSMLPPVNFSIVP, the protein stability index worked out at 2.67.

In the case of YPEQAKGFHKAGSMLPPVNFSIVP, the protein stability index was 2.17.

Take YPEQSKGFHKAGSMLPAVNFSIVP: the protein stability index was 2.63.

With YPEQSKGFHKAGSMLPFVNFSIVP, the protein stability index amounted to 1.58.

Consider YPEQSKGFHKAGSMLPYVNFSIVP, for which the protein stability index worked out at 1.8.

Turning to YPEQSKGFHKAGSMLPDVNFSIVP, the protein stability index amounted to 1.94.

Regarding YPEQSKGFHKAGSMLPPGNFSIVP, the protein stability index was 2.48.

On to YPEQSKGFHKAGSMLPPMNFSIVP, for which the protein stability index amounted to 2.02.

As for YPEQSKGFHKAGSMLPPTNFSIVP, the protein stability index is 2.

Take YPEQSKGFHKAGSMLPPSNFSIVP: the protein stability index stood at 1.96.

Turning to YPEQSKGFHKAGSMLPPNNFSIVP, the protein stability index came to 2.4.

For the variant YPEQSKGFHKAGSMLPPVNFSEVP, the protein stability index was 2.33.

On to YPEQSKGFHKAGSMLPPVNFSGVP, for which the protein stability index turned out to be 2.52.

Take YPEQSKGFHKAGSMLPPVNFSRVP: the protein stability index came to 2.52.

As for YPEQSKGFHKAGSMLPPVNFSLVP, the protein stability index was 2.34.

Regarding YPEQSKGFHKAGQMLPPVNFSIVP, the protein stability index amounted to 1.97.

YPEQSKGFHKAGWMLPPVNFSIVP: the protein stability index worked out at 2.1.

Take YPEQSKGFHKAGTMLPPVNFSIVP: the protein stability index amounted to 1.7.

Turning to YPEQSKGFHKAGCMLPPVNFSIVP, the protein stability index is 1.73.

With YPEQSKGFHKAGSMLPPVNPSIVP, the protein stability index came to 2.66.

For YPEQSKGFHKAGSMLPPVNWSIVP, the protein stability index stood at 1.57.

Consider YPEQSKGFHKAGSMLPPVNYSIVP, for which the protein stability index amounted to 2.03.

YPEQSKGFHKAGSMLPPVNQSIVP: the protein stability index came to 2.47.

YPEQSKGFHKAGSMLPPVNRSIVP: the protein stability index stood at 2.23.

For YPEQSKGFHKAGSMLPPVNKSIVP, the protein stability index is 2.19.

With YPEQSKGFHKAGSMLPPVNESIVP, the protein stability index is 2.13.

Regarding YPEQSKGFHKAGSMLPPVNSSIVP, the protein stability index came out at 2.14.

In the case of YPEQSKGFHKAGSMLPPVNMSIVP, the protein stability index came to 1.97.

With YPEQSKGFHKAGSMLPPVNHSIVP, the protein stability index is 2.19.

For YPEQSKGFHKAPSMLPPVNFSIVP, the protein stability index came to 2.

Regarding YPEQSKGFHKAYSMLPPVNFSIVP, the protein stability index was determined as 2.64.

For YPEQSKGFHKPGSMLPPVNFSIVP, the protein stability index amounted to 2.19.

Take YPEQSKGFHKKGSMLPPVNFSIVP: the protein stability index was 2.15.

Take YPEQSKGFHKYGSMLPPVNFSIVP: the protein stability index stood at 1.74.

For the variant YPEQSKGFHKHGSMLPPVNFSIVP, the protein stability index was 2.21.

For the variant YPEQSKGFHKVGSMLPPVNFSIVP, the protein stability index came to 1.67.

As for YPEQSKGFHKCGSMLPPVNFSIVP, the protein stability index was 2.03.

Regarding YPEQSKGFHKAGSMLPPVNFSIVL, the protein stability index was 3.85.

Consider YPEQSKGFHKAGSMLPPVNFSIVM, for which the protein stability index stood at 2.5.

For the variant YPEQSKGFHKAGSMLPPVNFSIVF, the protein stability index was determined as 1.83.

In the case of YPEQSKGFHKAGSMLPPVNFSIVE, the protein stability index is 2.74.

In the case of YPEQSKGHHKAGSMLPPVNFSIVP, the protein stability index came out at 3.07.

With YPEQSKGNHKAGSMLPPVNFSIVP, the protein stability index stood at 3.83.

YPEQSKGKHKAGSMLPPVNFSIVP: the protein stability index was determined as 3.32.

For the variant YPEQSKGRHKAGSMLPPVNFSIVP, the protein stability index turned out to be 3.17.

For the variant YPEQSKGMHKAGSMLPPVNFSIVP, the protein stability index was 2.43.

YPEQSKGWHKAGSMLPPVNFSIVP: the protein stability index came to 3.05.

Consider YPEQSKGQHKAGSMLPPVNFSIVP, for which the protein stability index is 3.39.

Regarding YPEQSKGIHKAGSMLPPVNFSIVP, the protein stability index is 3.44.

With YPEQSKGFHKAGSMLPPVNFFIVP, the protein stability index is 1.6.

As to YPENSKGFHKAGSMLPPVNFSIVP, the protein stability index was 1.89.

YPECSKGFHKAGSMLPPVNFSIVP: the protein stability index was determined as 1.8.

YPERSKGFHKAGSMLPPVNFSIVP: the protein stability index was determined as 1.79.

As to YPEWSKGFHKAGSMLPPVNFSIVP, the protein stability index worked out at 3.72.

As to MPEQSKGFHKAGSMLPPVNFSIVP, the protein stability index stood at 2.97.

Turning to PPEQSKGFHKAGSMLPPVNFSIVP, the protein stability index came to 3.33.

Regarding GPEQSKGFHKAGSMLPPVNFSIVP, the protein stability index worked out at 3.26.

For the variant YPEQSKGFHKAGSMLPPVNFSIDP, the protein stability index came to 1.88.

As to YPEQSKGFHKAGSMLPPVNFSIHP, the protein stability index is 1.43.

In the case of YPEQSKGFHKAGSMLPPVNFSIAP, the protein stability index is 2.57.

In the case of YPEQSKGFHKAGSMLPPVNFSIIP, the protein stability index is 2.47.

With YPEQSKGFHKAGSMLPPVNFSIWP, the protein stability index worked out at 1.87.

As for YPEQSKGFHKAGSMLPPVNFSIRP, the protein stability index was determined as 1.9.

Turning to YPEQSKGFHKAGSMSPPVNFSIVP, the protein stability index is 2.04.

Regarding YPEQSKGFHKAGSMAPPVNFSIVP, the protein stability index was 1.63.

Regarding YPEQSKGFHKAGSMPPPVNFSIVP, the protein stability index was 2.42.

Turning to YPEQSKGFHKAGSMGPPVNFSIVP, the protein stability index worked out at 1.58.

On to YPEQSKGFHKAGSMTPPVNFSIVP, for which the protein stability index is 2.16.

As for YPEQSKGFHKAGSMQPPVNFSIVP, the protein stability index came out at 2.47.

On to YPEQSKGFHKAGSMVPPVNFSIVP, for which the protein stability index came to 1.85.

With YPEQSKGFHKAGSMKPPVNFSIVP, the protein stability index amounted to 1.72.

Source of the values: the supplement of paper PMC10567573.
